Results: patent US20130156706A1 (BRACCO SUISSE S A, published 2013)

T1: mouse Fc P-Selectin (CD62P-Fc Chimera, from R&D Systems) (mouse, UniProt Q01102 42-709)
T1 construct: Bought reagent, coated in the flow chamber; also called mouse P-selectin; not shown: Fc part of the commercial chimera
T1 sequence (looked up): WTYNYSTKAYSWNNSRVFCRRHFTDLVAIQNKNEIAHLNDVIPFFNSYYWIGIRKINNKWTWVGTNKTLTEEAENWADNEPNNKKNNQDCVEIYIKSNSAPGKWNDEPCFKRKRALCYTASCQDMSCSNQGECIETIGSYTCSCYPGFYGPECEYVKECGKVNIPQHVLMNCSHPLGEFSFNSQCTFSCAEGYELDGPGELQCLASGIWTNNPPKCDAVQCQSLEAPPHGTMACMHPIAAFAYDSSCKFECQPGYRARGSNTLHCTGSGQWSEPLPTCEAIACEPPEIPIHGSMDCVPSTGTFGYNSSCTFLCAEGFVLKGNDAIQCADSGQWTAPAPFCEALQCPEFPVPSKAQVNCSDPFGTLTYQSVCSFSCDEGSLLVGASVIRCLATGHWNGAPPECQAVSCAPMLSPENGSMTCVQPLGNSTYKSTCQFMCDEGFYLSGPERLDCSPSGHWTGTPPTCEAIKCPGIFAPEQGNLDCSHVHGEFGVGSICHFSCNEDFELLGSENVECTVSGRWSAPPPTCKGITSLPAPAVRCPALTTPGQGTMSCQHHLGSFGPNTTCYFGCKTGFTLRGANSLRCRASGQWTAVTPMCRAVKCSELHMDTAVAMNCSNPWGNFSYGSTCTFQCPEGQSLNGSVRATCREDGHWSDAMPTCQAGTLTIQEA

B1: Fr-1, purified fragment of rPSGL-Ig (SEQ ID NO:3), dimeric, thiolated and bound to DSPE-PEG-maleimide on gas-filled microvesicles (Example 6) (other)
chain: QATEYEYLDYDFLPETEPPEMLRNSTDTTPLTGPGTPESTTVEPAARPHTCPPCPAPEALGAPSVFLFPPK
modifications: glycosylated (fragment of glycosylated rPSGL-Ig); thiolated with SATA and deacetylated, then coupled to DSPE-PEG-maleimide of the microvesicle envelope
notes: Disulfide-linked homodimer, about 32 kDa by MALDI-ToF; also called dimeric Fr-1
B2: Monomeric Fr-1 (Fr-1 of SEQ ID NO:3 reduced with TCEP) bound to DSPE-PEG-maleimide on gas-filled microvesicles (Example 8) (other)
chain: QATEYEYLDYDFLPETEPPEMLRNSTDTTPLTGPGTPESTTVEPAARPHTCPPCPAPEALGAPSVFLFPPK
modifications: glycosylated (fragment of glycosylated rPSGL-Ig); disulfide bonds reduced with TCEP, free cysteine thiols coupled to DSPE-PEG-maleimide of the microvesicle envelope
notes: also called reduced monomeric Fr-1
B3: rPSGL-Ig (glycosylated SEQ ID NO: 4), thiolated and bound to DSPE-PEG-maleimide on gas-filled microvesicles (Example 4) (Fc fusion)
chain: QATEYEYLDYDFLPETEPPEMLRNSTDTTPLTGPGTPESTTVEPAARPHTCPPCPAPEALGAPSVFLFPPKPKDTLMISRTPEVTCVVVDVSHEDPEVKFNWYVDGVEVHNAKTKPREEQYNSTYRVVSVLTVLHQDWLNGKEYKCKVSNKALPVPIEKTISKAKGQPREPQVYTLPPSREEMTKNQVSLTCLVKGFYPSDIAVEWESNGQPENNYKTTPPVLDSDGSFFLYSKLTVDKSRWQQGNVFSCSVMHEALHNHYTQKSLSLSPGK
modifications: glycosylated; amino groups thiolated with Traut reagent (2-iminothiolane) and coupled to DSPE-PEG-maleimide of the microvesicle envelope
notes: also called recombinant PSGL-Ig; dimPSGL-1

target: T1, mouse Fc P-Selectin (CD62P-Fc Chimera, …); experiment: flow chamber adhesion of microvesicles on a mouse P-selectin-Fc coating
Description: To test the effective binding, targeted microvesicles prepared according to comparative example 4 were injected in a flow chamber set up comprising a coating of mouse Fc P-Selectin (CD62P-Fc Chimera, from R&D Systems (Minneapolis, Minn., USA). Microvesicles (at equivalent number of 80×10⁶/400 μL TBS++) were injected through the flow chamber (FCS2, Bioptech, USA) in a bolus fashion and their adhesion onto the mouse P-selectin coating layer was assessed over a period of 10 min at a flow rate of 1.0 mL/min (shear rate of 714 s⁻¹) in the presence of 50% human plasma in PBS (v:v, Biomeda collected on citrate, ref. ES1020P, Stehelin & Cie AG). A quantitative analysis of microvesicles accumulation was performed by counting the number of microvesicles adhering in the observed area at 2 min intervals over the total 10 min infusion, using the image processing program Analysis FIVE (SIS, Germany). After 10 min, five pictures were taken randomly and the number of bound microvesicles was measured and expressed as the number of bound bubbles at 10 min (NBB). Each observed area was 183×137 μm, as measured with the aid of a stage micrometer. Measurement was performed between the middle and the exit of the chamber.
Similarly, suspensions of targeted microvesicles prepared according to example 6 (Fr-1 targeting ligand) and according to example 8 (monomeric FR-1) were injected in a flow chamber as described above, and their binding activity determined according to the above procedure.

Binding result, binds:
B1, B2, B3
